Values quoted from earlier work in article PMC11166923.
pKd: −log10 of the molar value.

Biological target: integrin β1D cytoplasmic tail (Homo sapiens) (UniProt P05556)
Chain of UniProt P05556 (P05556 752-798): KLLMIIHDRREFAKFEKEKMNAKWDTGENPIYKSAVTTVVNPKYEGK

- pKd: 4.52
Substance: Talin-2 (from UniProt Q9Y4G6)
